Source: patent US20060165686A1 (NOVIMMUNE S A, published 2006)

What was measured:
Test in all cases: cell-based or functional assay
[1] = biological target: human toll-like receptor 2 (TLR2) (human, UniProt O60603 21-784)
[2] = biological target: human toll-like receptor 4 (TLR4) (human, UniProt O00206 24-839)
[3] = biological target: T1, human MD-2 accessory protein (human, UniProt Q9Y6Y9 19-160)
T1 chain: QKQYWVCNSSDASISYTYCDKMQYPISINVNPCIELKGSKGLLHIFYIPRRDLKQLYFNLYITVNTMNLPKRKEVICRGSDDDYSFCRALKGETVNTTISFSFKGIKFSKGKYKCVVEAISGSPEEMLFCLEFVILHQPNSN

Sequence of human toll-like receptor 4 (TLR4) (O00206 24-839 limits assumed): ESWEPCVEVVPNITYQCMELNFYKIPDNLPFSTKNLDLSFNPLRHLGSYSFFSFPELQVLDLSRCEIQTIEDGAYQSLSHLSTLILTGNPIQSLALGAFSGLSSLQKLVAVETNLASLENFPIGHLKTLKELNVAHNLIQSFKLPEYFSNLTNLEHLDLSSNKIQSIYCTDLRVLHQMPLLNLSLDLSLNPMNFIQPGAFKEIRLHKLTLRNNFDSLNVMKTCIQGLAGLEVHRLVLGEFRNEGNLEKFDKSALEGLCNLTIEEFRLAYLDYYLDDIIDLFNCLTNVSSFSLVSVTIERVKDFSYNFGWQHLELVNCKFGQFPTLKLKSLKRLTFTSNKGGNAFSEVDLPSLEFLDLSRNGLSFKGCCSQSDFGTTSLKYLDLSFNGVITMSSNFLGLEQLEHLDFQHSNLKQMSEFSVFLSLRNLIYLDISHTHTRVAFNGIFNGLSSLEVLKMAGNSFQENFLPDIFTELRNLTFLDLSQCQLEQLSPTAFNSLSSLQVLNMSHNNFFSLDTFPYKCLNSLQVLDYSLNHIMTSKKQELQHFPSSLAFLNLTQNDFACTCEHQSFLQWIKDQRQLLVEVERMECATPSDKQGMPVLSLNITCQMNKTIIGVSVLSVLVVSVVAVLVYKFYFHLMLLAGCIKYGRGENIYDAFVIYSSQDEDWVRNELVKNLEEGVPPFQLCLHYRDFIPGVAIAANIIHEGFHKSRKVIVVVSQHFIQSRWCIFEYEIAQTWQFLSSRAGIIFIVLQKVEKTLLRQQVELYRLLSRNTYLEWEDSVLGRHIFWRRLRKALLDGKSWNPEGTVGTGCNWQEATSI
Sequence of human toll-like receptor 2 (TLR2) (O60603 21-784): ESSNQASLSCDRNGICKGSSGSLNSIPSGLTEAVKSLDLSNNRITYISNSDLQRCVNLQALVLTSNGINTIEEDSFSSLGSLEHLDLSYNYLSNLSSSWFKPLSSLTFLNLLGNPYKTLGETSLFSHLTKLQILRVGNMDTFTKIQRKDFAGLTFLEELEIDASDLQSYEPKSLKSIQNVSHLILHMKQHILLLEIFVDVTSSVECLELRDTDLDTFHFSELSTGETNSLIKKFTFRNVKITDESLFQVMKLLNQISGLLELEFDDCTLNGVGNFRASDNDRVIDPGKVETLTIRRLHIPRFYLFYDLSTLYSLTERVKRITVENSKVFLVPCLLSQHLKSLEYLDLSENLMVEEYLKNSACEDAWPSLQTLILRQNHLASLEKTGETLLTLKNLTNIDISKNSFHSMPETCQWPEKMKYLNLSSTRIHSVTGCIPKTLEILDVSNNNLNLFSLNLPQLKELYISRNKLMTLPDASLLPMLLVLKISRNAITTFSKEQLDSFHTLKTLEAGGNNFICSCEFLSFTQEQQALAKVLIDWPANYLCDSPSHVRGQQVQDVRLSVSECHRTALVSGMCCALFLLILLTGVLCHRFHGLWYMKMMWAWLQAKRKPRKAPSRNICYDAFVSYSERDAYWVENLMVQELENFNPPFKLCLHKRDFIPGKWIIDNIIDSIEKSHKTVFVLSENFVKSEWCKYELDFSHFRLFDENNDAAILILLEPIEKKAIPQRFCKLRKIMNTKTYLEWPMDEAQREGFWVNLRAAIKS

B1: α-human TLR2 MAb T2.5 (antibody, V domains shown)
VH: QVQLQQSGPELVNPGASVKLSCKASGFTFTTYGINWVKQGPGQGLEWIGWIYPRDGSTNFNENFKDKAALTVDTSSSTAYMELHSLTSEDSAVYFCARLTGGTFLDWWGQGTTLTVSS
VL: DIVLTQSPASLAVSLGQRATISCRASESVEYYGTSLMQWYQQKPGQPPKLLIFGASNVESGVPVRFSGSGSGTDFSLNIHPVEEDDIVMYFCQQSRKLPWTFGGGTKLEIKR
IL-6 production induced by pseudomonas LPS in human whole blood [1]: ~50%

B2: α-human TLR4 MAb 15C1 (murine 15C1 monoclonal antibody) (antibody, mouse IgG1, V domains shown)
VH: DVQLQESGPDLIQPSQSLSLTCTVTGYSITGGYSWHWIRQFPGNKLEWMGYIHYSGYTDFNPSLKTRISITRDTSKNQFFLQLNSVTTEDTATYYCARKDPSDGFPYWGQGTLVTVSA
VL: DIVMTQSPATLSVTPGDRVSLSCRASQSISDHLHWYQQKSHESPRLLIKYASHAISGIPSRFSGSGSGTDFTLSIKSVEPEDIGVYYCQNGHSFPLTFGAGTKLELK
IL-6 production induced by pseudomonas LPS in human whole blood [2]: ~50%

B3: α-human MD-2 MAb 18H10 (murine 18H10 monoclonal antibody) (antibody, mouse IgG2b, V domains shown)
VH: QVQLQQSGADLVRPGALVKLSCTASGFNIKDSYIHWVKKRPEWGLEWIGWTDPENVNSIYDPRFQGKASITADTSSNTAFLQLTSLTSEDTAVYYCARGYNGVYYAMDYWGQGTSVTVSS
VL: QIVLTQSPSIMSASLGEEITLTCSASSSVIYMHWYQQKSGTSPKLLIYRTYNLASGVPSRFSGSGSGTFYSLTISSVEAEDAADYYCHQWSSFPYTFGGGTKLEIKR
IL-6 production induced by pseudomonas LPS in human whole blood [3]: ~50%
